{
  "source": "patent US20110118324A1",
  "about": "“METHOD AND COMPOSITION FOR TREATING MULTIPLE SCLEROSIS (VARIANTS)” (priority 2009, published 2011)",
  "origin": "cited, not measured here",
  "molecules": {"B1": {"name": "Betaferon: a recombinant human Beta-1b interferon (protein, UniProt P01574 22-187, looked up, variant C17S)", "Interferon beta": "MSYNLLGFLQRSSNFQSQKLLWQLNGRLEYCLKDRMNFDIPEEIKQLQQFQKEDAALTIYEMLQNIFAIFRQDSSSTGWNETIVENLLANVYHQINHLKTVLEEKLEKEDFTRGKLMSSLHLKRYYGRILHYLKAKEYSHCAWTIVRVEILRNFYFINRLTGYLRN", "modifications": "lacks N-terminal Met, non-glycosylated", "notes": "a recombinant human Beta-1b interferon"}},
  "test_system": "multiple sclerosis patients",
  "data": [
    {"molecule": "B1", "values": [
      {"measurement": "reduction of the frequency of acute conditions occurring in the disease", "result": 30, "unit": "%"},
      {"measurement": "reduction of the severity of acute conditions", "result": 30, "unit": "%"},
      {"measurement": "side effects", "result": "intensified depressive symptomatology"}
    ]}
  ]
}
